# Experimental data taken from patent US9212359B2, “Systems for induction of gene expression and protein depletion in yeast” (priority 2011, dated 2015).
# Tested on: TEV protease / N-end rule degradation
# Test: Western blot of N-degron-tagged proteins after GEV-mediated induction of TEV
# Type: cell-based, S. cerevisiae
# Details: 1 μM β-estradiol, YPD; for half-life of NDeg-tagged protein: power-law fit of 10, 20 and 40-minute timepoints
# Protocol: Total protein was extracted from ˜10 mL aliquots of cultures at ˜2×10^7 cells/mL using YPX extraction kit (Protein Discovery, Knoxville, Tenn.) with the addition of protease inhibitors (Roche tablets, cat#11836170001). Proteins were separated using Invitrogen NuPage precast 10% Bis-Tris gels and transferred to Invitrolon PVDF (Invitrogen cat#LC2005) according to the manufacturer's protocols. Primary antibody for the β-Myc epitope was mouse anti-human c-Myc from BD Pharmingen (cat#51-1485GR). Secondary antibody was goat anti-mouse-HRP (cat#115-035-003) from Jackson ImmunoResearch. Primary antibody dilution was typically 1/1000 and secondary antibodies were used at 1/10,000 dilution. Immunoreactive peptides were detected by incubation with ECL^+ detection reagent (Amersham/GE RPN2132) and imaging on HyBlot CL autoradiography film (Denville Scientific, Metuchen, N.J.). As a loading control, blots were probed with mouse monoclonal anti-β-Actin antibody loading control cat#ab8224, Abcam, Cambridge, Mass. ( 1/600 or 1/2000). Secondary antibody was as above, goat anti-mouse-HRP. Protein levels were quantified with the “Gel Analysis” feature in ImageJ and normalized to the t=0 levels in each time course.
# MET4 and MET31 genes were chosen for use in a proof of principle experiment to exemplify the protein depletion method (FIG. 8). We constructed Ndeg-modified MET4 and MET31 alleles in separate strains containing GEV and PGAL1-TEV (see Materials and Methods). Cells were grown in rich medium (YPD) and treated with 1 μMβ-estradiol at ˜2×10^7 cells/mL. Western blots were performed on proteins extracted at several time points after induction (FIG. 9). Treatment of cultures with 1 μM β-estradiol had no effect on levels of Met4p-13Myc or Met31p-13Myc lacking NDeg (FIG. 9A, 9B).
Molecule,half-life of NDeg-tagged protein [min],effect of β-estradiol treatment on levels of protein lacking NDeg
"NDeg-Met4p-13Myc: N-degron-tagged, 13Myc-tagged Met4p target protein (DBY12055) (protein, UniProt P32389 1-672, looked up, N-degron tag; 13Myc tag) Transcriptional activator of …: MKQEQSHEGDSYSTEFINLFGKDTATHPSSNNGANNNGMGSTNSLDQFVATASSSSSLVTSSENRRPLIGDVTNRGNTNLYDHAVTPEILLEQLAYVDNFIPSLDNEFSNVDWNVNTTHNNANNNGADTFSSINANPFDLDEQLAIELSAFADDSFIFPDEDKPSNNNNNSNNGNDDHSNHDVLHEDPSTNNRQRNPHFLTQRRNTFLTSQYDQSKSRFSSKNKRNGNNGETNNFGDNMQNNHPFEPNFMGSPSQFPADATNMTSIDHGGFTNVDITSTENNTTGDNGVDALSNLLHRTTHTPNRSSPLSNVTSAQNSSSQQRKHSESKVDSNSDNNSSNKAPNITVPDYSIIPTSVLVTLLPRVNVPNGAYNSLISAGFDNDQIDAIAAIMAYHHQKKIRENNSNNNKNINTNDSQEAPILKNINELLSVLIPPSPAETRGPTTLSTSPSFNEHGVVAEASFLSSILELGIKHPKSNNIHNQRQPSRNDHKISRESDGNNGNDNVHHNNAVIKSSTTRGDEIAKIRSEPTLNASSSDHKENSLKRSHSGDLKNKKVPVDRKYSDNEDDEYDDADLHGFEKKQLIKKELGDDDEDLLIQSKKSHQKKKLKEKELESSIHELTEIAASLQKRIHTLETENKLLKNLVLSSGETEGIKKAESLKKQIFEKVQKE",16,–
"NDeg-Met31p-13Myc: N-degron-tagged, 13Myc-tagged Met31p target protein (DBY12234) (protein, UniProt Q03081 1-177, looked up, N-degron tag, 13Myc tag) Transcriptional regulator …: MKLAQDMNVDEIFLKQAAEAIAVISSSPTHTDPIIRELLHRIRQSSPLSAVIPAPENVLKAGEPENMARGLIRIPETQTKRTGGNNHSKEGAQLYSCAKCQLKFSRSSDLRRHEKVHSLVLPHICSNCGKGFARKDALKRHSNTLTCQRNRKKLSEGSDVDVDELIKDAIKNGTGLL",13.75,–
"Met4p-13Myc: 13Myc-tagged Met4p lacking NDeg (DBY11440), control protein (protein, UniProt P32389 1-672, looked up, 13Myc tag, 13Myc-tagged Met4p lacking NDeg (DBY11440), control protein) Transcriptional activator of …: MKQEQSHEGDSYSTEFINLFGKDTATHPSSNNGANNNGMGSTNSLDQFVATASSSSSLVTSSENRRPLIGDVTNRGNTNLYDHAVTPEILLEQLAYVDNFIPSLDNEFSNVDWNVNTTHNNANNNGADTFSSINANPFDLDEQLAIELSAFADDSFIFPDEDKPSNNNNNSNNGNDDHSNHDVLHEDPSTNNRQRNPHFLTQRRNTFLTSQYDQSKSRFSSKNKRNGNNGETNNFGDNMQNNHPFEPNFMGSPSQFPADATNMTSIDHGGFTNVDITSTENNTTGDNGVDALSNLLHRTTHTPNRSSPLSNVTSAQNSSSQQRKHSESKVDSNSDNNSSNKAPNITVPDYSIIPTSVLVTLLPRVNVPNGAYNSLISAGFDNDQIDAIAAIMAYHHQKKIRENNSNNNKNINTNDSQEAPILKNINELLSVLIPPSPAETRGPTTLSTSPSFNEHGVVAEASFLSSILELGIKHPKSNNIHNQRQPSRNDHKISRESDGNNGNDNVHHNNAVIKSSTTRGDEIAKIRSEPTLNASSSDHKENSLKRSHSGDLKNKKVPVDRKYSDNEDDEYDDADLHGFEKKQLIKKELGDDDEDLLIQSKKSHQKKKLKEKELESSIHELTEIAASLQKRIHTLETENKLLKNLVLSSGETEGIKKAESLKKQIFEKVQKE",–,no effect
"Met31p-13Myc: 13Myc-tagged Met31p lacking NDeg (DBY12235), control protein (protein, UniProt Q03081 1-177, looked up, C-terminal 13Myc tag, 13Myc-tagged Met31p lacking NDeg (DBY12235), control protein) Transcriptional regulator …: MKLAQDMNVDEIFLKQAAEAIAVISSSPTHTDPIIRELLHRIRQSSPLSAVIPAPENVLKAGEPENMARGLIRIPETQTKRTGGNNHSKEGAQLYSCAKCQLKFSRSSDLRRHEKVHSLVLPHICSNCGKGFARKDALKRHSNTLTCQRNRKKLSEGSDVDVDELIKDAIKNGTGLL",–,no effect
